Reference: paper PMC3436176

Target: III-30A (human)
Assay: ELISA

Sequence of GPVIex (recombinant extracellular domain of GPVI) (Q9HCN6 21-214): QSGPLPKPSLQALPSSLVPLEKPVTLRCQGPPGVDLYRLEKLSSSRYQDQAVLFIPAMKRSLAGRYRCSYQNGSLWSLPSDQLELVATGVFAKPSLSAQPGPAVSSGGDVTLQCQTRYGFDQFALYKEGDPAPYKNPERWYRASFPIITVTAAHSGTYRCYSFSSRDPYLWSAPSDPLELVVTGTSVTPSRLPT

GPVIex (recombinant extracellular domain of GPVI) (from UniProt Q9HCN6 21-214) (domain or fragment)
Kd: 10.2 µM
